Experimental data: patent publication US20250109209A1 (ABSCI, published 2025)

Assays:
[1] = molecular target: T1, human TL1A (human, UniProt O95150 72-251); test: SPR, representative sensorgram with Human TL1A
T1 construct: Antigen in SPR and ELISA; Also used here for places that print only 'TL1A' and for endogenous TL1A in human whole blood; also called TNFSF15
T1 sequence (looked up): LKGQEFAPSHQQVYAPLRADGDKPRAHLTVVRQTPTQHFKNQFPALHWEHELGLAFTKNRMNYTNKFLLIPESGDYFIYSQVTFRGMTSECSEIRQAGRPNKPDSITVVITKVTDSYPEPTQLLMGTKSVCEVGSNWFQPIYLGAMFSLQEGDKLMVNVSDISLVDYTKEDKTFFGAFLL

[2] = molecular target: T1, human TL1A; test: SPR, mAb format, average
[3] = molecular target: T2, mouse TL1A (mouse, UniProt Q5UBV8 76-252, limits assumed); test: SPR, mAb format, average
T2 sequence (looked up): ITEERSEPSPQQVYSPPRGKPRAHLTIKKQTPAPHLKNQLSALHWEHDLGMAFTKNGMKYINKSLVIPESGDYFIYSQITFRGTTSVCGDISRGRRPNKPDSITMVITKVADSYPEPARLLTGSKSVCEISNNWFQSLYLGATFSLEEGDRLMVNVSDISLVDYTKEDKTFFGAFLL

[4] = molecular target: T3, Cyno TL1A (cyno, UniProt G7PRK8 72-251); test: SPR, mAb format, average
T3 sequence: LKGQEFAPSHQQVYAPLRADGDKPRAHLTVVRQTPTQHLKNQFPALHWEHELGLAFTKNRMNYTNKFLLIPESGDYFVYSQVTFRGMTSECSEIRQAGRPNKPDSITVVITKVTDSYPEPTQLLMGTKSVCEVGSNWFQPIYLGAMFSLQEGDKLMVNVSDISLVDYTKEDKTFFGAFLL

[5] = molecular target: T1, human TL1A; test: SPR, mAb format, average; remark: listed apart in the source
[6] = molecular target: T3, Cyno TL1A; test: SPR, representative sensorgram with Cyno TL1A
[7] = molecular target: T4, FcRn (UniProt P55899 24-297; P61769 21-119); test: SPR, representative sensorgram with FcRn, pH 6.0
T4 construct: also called neonatal receptor

[8] = molecular target: T1, human TL1A; test: SPR, mAb format, average; remark: listed apart in the source
[9] = molecular target: T4, FcRn; test: SPR, mAb format, FcRn at pH 6.0, average

Kd [1]: < 44 pM | Kd [2]: 44 pM | Kd [3]: 117000 pM | Kd [4]: 32 pM | Kd [5]: 44 pM | Kd [6]: < 31 pM | Kd [7]: 14000 pM | Kd [8]: 44 pM | Kd [9]: 16000 pM
B1: Antibody 3 (mAb format) (antibody, human IgG1, kappa, N297A)
heavy: QVQLQESGPGLVRPSQTLSLTCTVSGFDIQDTYMHWVRQRPGRGLEWMGRIEPAGGHTKYNPSLKSRVTITRDTSKNQVSLRLSSVTAADTAVYYCVRSGGLPDAWGQGSLVTVSSASTKGPSVFPLAPSSKSTSGGTAALGCLVKDYFPEPVTVSWNSGALTSGVHTFPAVLQSSGLYSLSSVVTVPSSSLGTQTYICNVNHKPSNTKVDKKVEPKSCDKTHTCPPCPAPELLGGPSVFLFPPKPKDTLMISRTPEVTCVVVDVSHEDPEVKFNWYVDGVEVHNAKTKPREEQYASTYRVVSVLTVLHQDWLNGKEYKCKVSNKALPAPIEKTISKAKGQPREPQVYTLPPSRDELTKNQVSLTCLVKGFYPSDIAVEWESNGQPENNYKTTPPVLDSDGSFFLYSKLTVDKSRWQQGNVFSCSVLHEALHSHYTQKSLSLSPGK
light: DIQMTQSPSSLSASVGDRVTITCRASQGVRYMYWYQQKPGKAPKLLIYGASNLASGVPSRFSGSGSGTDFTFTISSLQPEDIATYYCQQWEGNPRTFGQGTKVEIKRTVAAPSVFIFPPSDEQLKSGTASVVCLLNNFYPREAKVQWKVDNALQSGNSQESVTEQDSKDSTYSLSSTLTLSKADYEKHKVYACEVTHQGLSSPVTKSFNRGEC
notes: also called high priority lead mAb
